Test [1] concerns the target Spike of live SARS-CoV-2 WT virus (SARS-CoV-2, UniProt P0DTC2 14-1273). The test can be described thus: cell-based or functional assay.
Test [2] has as its target T1, SARS-CoV-2 S1 (40591-V08H3, Sino Biological) (SARS-CoV-2, UniProt P0DTC2 16-685).
T1 construct: domain: S1
The test is described as follows: ELISA, hmAb at 10 and 1 ug/ml in duplicate; AUC.

The target of test [3] is T2, SARS-CoV-2 S2 (40590-V08B, Sino Biological) (SARS-CoV-2, UniProt P0DTC2 686-1213).
T2 construct: domain: S2
The test is described as follows: ELISA, hmAb at 10 and 1 ug/ml in duplicate; AUC.

The target in test [4] is T3, SARS-CoV-2 S1+S2 (40589-V08B1, Sino Biological) (SARS-CoV-2, UniProt P0DTC2 16-1213). The test is described as follows: ELISA, hmAb at 10 and 1 ug/ml in duplicate; AUC.
Test [5] addresses T1, SARS-CoV-2 S1 (40591-V08H3, Sino …). The test is described as follows: ELISA on coated protein, anti-human IgG-HRP; AUC of the OD. A general note: In an ELISA, binding on a coated surface is turned into a signal by an enzyme label.
In test [6] the target is T2, SARS-CoV-2 S2 (40590-V08B, Sino …). The test is described as above.
For test [7], the target named is T3, SARS-CoV-2 S1+S2 (40589-V08B1, Sino …). Described as above.

Some results are limits rather than exact numbers.

B1: 1250E10 (antibody, V domains shown)
VH: EVQLVQSGAEVKKPGASVKFSCKASGFRVDGSYMHWVRQAPRGGLEWMGLINPSGSGTAYAQIFQGRVTLTRDTSTSTLYMELGSLGSEDTAMYYCARMDRSGSYDLWGQGTLVIVSS
VL: DIVLTQSPGNLSLSPGERATLSCRASESIRSAYIAWYQQKPGQAPRLLMRGASVRAAGIPDRFSGSGSGTDYALTISRLEPEDFAVYYCQHFASSPPRYTFGQGTKLEIK
notes: Recombinant human IgG1
Regarding B1, the “Neutralization IC50 (µg/ml), Live Virus WT” value (“Neutralization IC50 (µg/ml)” below) in test [1] is greater than 50 µg/mL. Also, the “Binding AUC” value in test [2] was 2.9; in test [3], 27.9; in test [4], 26; in test [5], 2.9; in test [6], 27.9; in test [7] it was 26. Also, the binding result in test [2] is reported as “no binding (tested: 10 ug/ml)”.

B2: 1212C2 (antibody, V domains shown)
VH: QVQLVQSGAEVKKPGASVKVSCKASGYIFTDYFIHWVRQAPGQGLEWMGWINPNSGGTKYAQKFQGRVTMTRDTSISTVYMELSRLRSDDTAVHYCTRDLPLRTLYDSYGFDSWGQGTLVTVSS
VL: LPVLTQPASVSGSPGQSITISCTGTSSDVGSYNLVSWYQQHPGKAPKLMIYDVSKRPSGVSNRFSGSKSGNTASLTISGLQAEDEADYYCCSYAGNSIVFFGGGTKLTVL
B2: the “Neutralization IC50 (µg/ml)” value in test [1] came to 0.003 µg/mL.

B3: 1235C10 (antibody, V domains shown)
VH: EVQLVESGGGLVQPGRSLRLSCTASGFTFGDHSMSWVRQAPGKGLEWVGFIRSKAYGGTTEYAASVKGRFTISRDDSKSIAYLQMNSLKIEDTAVYYCTRGLTGLDYWGQGMLVTVSS
VL: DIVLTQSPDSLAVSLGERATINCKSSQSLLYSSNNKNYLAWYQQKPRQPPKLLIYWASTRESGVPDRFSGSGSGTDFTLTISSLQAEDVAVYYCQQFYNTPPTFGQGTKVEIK
notes: Recombinant human IgG1
For B3, the “Neutralization IC50 (µg/ml)” value in test [1] turned out to be 10.4 µg/mL. Further, the “Binding AUC” value was found to be 0.8 in test [2]; 26.9 in test [3]; 25.2 in test [4]; 0.8 in test [5]; 26.9 in test [6]; 25.2 in test [7]. In test [2], the binding result is “no binding (tested: 10 ug/ml)”.

B4: 1232D5 (antibody, V domains shown)
VH: EVQLVESGGGVVQPGGSLRLSCAASGFTFSNYGMHWVRQAPSKGLEWVAFIRYDGTNKYYADSVKGRFTISRDNSKNTLYLQINSLRAEDTAVYYCAIIAVAGDVNPDYWGQGTLVTVSS
VL: not shown
With B4, the “Binding AUC” value is 1.1 in test [2], 11.7 in test [4], 1.1 in test [5] and 11.7 in test [7]. Besides, the binding result in test [5] is given as “no binding”.

B5: 1242F11 (antibody, V domains shown)
VH: QVQLVQSGGGLVQPGGSLRLSCAASGFTFSSYWMTWVRQAPGKGLEWVANIKQDGREIYYVDSVKGRFTLSRDNAKNSLYLQMNSLRAEDTAVFYCARIRVFVSADSEGYHYYYGLDVWGQGTTVTVSP
VL: not shown
For B5, the “Binding AUC” value in test [5] worked out at 1.9; in test [7] it was 24.1.

B6: 1242D11 (antibody, V domains shown)
VH: QVQLVQSGGGLVQPGGSLRLSCAVSGFTFSSYWMSWVRQAPGKGLEWVANIKQDGSEKYYVDSVKGRFTISRDNAKNSLFLQMNSLRAEDTAVYYCAREAVGYYYDSRGYHYSWYFDLWGRGTLVTVSS
VL: EIVLTQSPGTLSLSPGERATLSCRASQSVSSSYLVWYQQKPGQAPRLLIFGASSRATGIPDRFSGSGSGTDFTLTISSLEPEDFAVYYCQHYGSSPPMYTFGQGTKLEIK
Turning to B6, the “Binding AUC” value in test [2] was determined as 2.9; in test [3], 24.4; in test [4], 21.4; in test [5], 2.9; in test [6], 24.4; in test [7] it was 21.4. In addition, the binding result in test [5] is given as “no binding”.

B7: 1242G6 (antibody, V domains shown)
VH: QVQLVQSGGGVVQPGTSVRLSCAASGFTFSDHGMHWVRQAPGKGLEWVAVISFEGRNKFFADSVKGRSTISRDNSKNTVSMQVDNVRPEDTAVYYCAREHFDGSGSDYIGTRFFDYWGRGALVTVSS
VL: DIQLTQSPSFLSASVGDRVTITCRASQGISHYLTWYQQKPGKAPKLLIYRTSTLQSGVPSRFSGSGSGTVFTLTISSLQPEDLATYYCQHLDNFPTITFGQGTRLDLK
notes: Recombinant human IgG1
Regarding B7, in test [1], the “Neutralization IC50 (µg/ml)” value was greater than 50 µg/mL. For the same molecule, the “Binding AUC” value in test [2] stood at 3.8; in test [3], 22.6; in test [4] it was 24.3; in test [5], 3.8; in test [6] it was 22.6; in test [7] it was 24.3. Moreover, the binding result in test [5] is recorded as “no binding”.

B8: 1246H7 (antibody, V domains shown)
VH: QVQLQQSGPGLMKPSETLSLTCTVSGGSISSSSYYWGWIRQPPGKGLEWIGSIYYSGATYYNPSLKSRVTISVDTSKNQLSLKLSSVTAADTAVYYCVNRYYDYVWGSWGVDCWGQGTLVTVSS
VL: QAGLTQPRSVSGSPGQSVTISCTGTSSDVGGYNYVSWYQQHPGKAPKLMIYDVNKRPSGVPDRFSGSKSGNTASLTISGLQAEDEADYFCCSYAGSYTYWVFGGGTKLTVL
As to B8, the “Binding AUC” value in test [2] was 1.7; in test [3], 4.8; in test [4], 5; in test [5], 1.7; in test [6], 4.8; in test [7], 5. Moreover, the binding result in test [5] was “no binding”.

B9: 1246C2 (antibody, V domains shown)
VH: QVQLVQSGGGLVKPGGSLRLSCAASGFTFKTHNMIWVRQAPGKVLEWVSSISGSSSYRYYGDSMKGRLTISRDNAKNSLYLEMNSLRAEDTAVYYCARDKGVGPTMVWYFDLWGRGTLVTVSS
VL: EIVLTQSPATLSLSPGDRATLSCRASQSLSISLAWYQQKPGQAPRLLIYDASIRATGVPPRFSGSGSGTDFTLTISSLEPEDFAVYYCQQWSGWPPRLTFGGGTKVEIK
Turning to B9, the “Neutralization IC50 (µg/ml)” value in test [1] was greater than 50 µg/mL. For the same molecule, the “Binding AUC” value in test [2] stood at 4.2; in test [3], 17.4; in test [4], 18; in test [5] it was 4.2; in test [6], 17.4; in test [7] it was 18. The binding result in test [2] is “no binding (tested: 10 ug/ml)”.

For the origin of these results see patent US20240270828A1 (UAB RESEARCH FOUNDATION, published 2024).
